What all share (assay): cell-based or functional assay
Assay [1] deals with T1, human β-klotho with a C-terminal FLAG tag, stably expressed in a clonal HEK-293 cell line (human, UniProt Q86Z14 1-1044).
T1 sequence: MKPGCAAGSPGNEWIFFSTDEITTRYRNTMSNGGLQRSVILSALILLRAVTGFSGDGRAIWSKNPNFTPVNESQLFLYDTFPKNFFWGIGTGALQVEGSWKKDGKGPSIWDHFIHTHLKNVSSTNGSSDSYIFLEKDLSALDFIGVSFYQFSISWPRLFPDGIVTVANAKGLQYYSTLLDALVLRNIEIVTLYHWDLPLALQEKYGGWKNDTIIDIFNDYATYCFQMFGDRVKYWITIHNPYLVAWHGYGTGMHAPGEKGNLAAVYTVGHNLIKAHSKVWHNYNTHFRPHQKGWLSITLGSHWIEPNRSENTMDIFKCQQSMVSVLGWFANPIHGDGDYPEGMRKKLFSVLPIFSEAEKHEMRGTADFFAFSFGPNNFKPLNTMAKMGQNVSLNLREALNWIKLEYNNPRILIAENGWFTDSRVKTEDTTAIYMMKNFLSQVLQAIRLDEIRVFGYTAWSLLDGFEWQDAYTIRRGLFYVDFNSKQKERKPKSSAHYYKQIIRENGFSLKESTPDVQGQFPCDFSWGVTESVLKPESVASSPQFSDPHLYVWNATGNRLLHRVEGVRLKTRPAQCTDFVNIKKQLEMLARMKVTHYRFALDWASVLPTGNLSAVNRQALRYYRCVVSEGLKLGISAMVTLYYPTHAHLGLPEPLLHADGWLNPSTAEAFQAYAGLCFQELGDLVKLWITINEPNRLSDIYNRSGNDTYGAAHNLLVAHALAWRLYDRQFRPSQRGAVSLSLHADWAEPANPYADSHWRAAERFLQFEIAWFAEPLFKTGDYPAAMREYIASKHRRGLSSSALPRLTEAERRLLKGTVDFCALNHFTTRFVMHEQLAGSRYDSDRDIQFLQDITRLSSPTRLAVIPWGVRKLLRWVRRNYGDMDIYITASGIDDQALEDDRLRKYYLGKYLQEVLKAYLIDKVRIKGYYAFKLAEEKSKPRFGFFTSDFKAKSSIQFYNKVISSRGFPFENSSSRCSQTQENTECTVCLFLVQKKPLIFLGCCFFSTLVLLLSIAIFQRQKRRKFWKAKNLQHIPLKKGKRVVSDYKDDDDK

The target in assay [2] is T1, human β-klotho with a C-terminal FLAG …. The source holds these as a separate data set.
Assay [3] deals with T2, human β-klotho, stably co-expressed with the Elk1-luciferase trans-reporter in HEK293 cells (HEK Luc Clone2) (human, UniProt Q86Z14 1-1044).
T2 sequence: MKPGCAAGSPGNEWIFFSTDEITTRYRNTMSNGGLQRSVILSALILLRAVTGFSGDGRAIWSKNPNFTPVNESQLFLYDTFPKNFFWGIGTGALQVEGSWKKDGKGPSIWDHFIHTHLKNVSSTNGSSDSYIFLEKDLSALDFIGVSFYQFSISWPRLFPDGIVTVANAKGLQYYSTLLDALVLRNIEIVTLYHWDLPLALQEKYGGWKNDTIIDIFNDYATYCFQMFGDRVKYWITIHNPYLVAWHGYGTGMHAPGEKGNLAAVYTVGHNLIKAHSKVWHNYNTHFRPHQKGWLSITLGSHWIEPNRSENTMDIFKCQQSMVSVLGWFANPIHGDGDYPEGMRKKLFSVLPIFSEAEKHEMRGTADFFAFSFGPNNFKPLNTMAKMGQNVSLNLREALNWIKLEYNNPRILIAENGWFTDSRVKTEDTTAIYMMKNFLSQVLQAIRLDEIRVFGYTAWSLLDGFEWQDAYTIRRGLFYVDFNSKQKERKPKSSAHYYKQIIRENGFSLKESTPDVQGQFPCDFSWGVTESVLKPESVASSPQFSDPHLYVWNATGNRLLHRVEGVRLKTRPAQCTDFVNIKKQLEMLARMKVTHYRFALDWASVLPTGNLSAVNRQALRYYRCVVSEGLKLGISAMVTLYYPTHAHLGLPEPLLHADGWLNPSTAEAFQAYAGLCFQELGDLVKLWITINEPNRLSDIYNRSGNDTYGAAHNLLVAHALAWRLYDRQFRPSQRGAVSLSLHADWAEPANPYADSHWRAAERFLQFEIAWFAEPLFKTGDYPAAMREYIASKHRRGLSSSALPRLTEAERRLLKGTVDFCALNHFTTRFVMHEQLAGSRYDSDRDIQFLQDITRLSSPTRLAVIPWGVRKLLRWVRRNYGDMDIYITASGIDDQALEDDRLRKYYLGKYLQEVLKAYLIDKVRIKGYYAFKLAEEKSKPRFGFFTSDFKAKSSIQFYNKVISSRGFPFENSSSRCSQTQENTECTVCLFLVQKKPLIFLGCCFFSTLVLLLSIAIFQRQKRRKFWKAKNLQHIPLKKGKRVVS

The target of assay [4] is T2, human β-klotho, stably co-expressed …. The source holds these as a separate data set.

Non-standard residues stand in square brackets, D forms with d. Phe(4-Ac) = CC(=O)c1ccc(C[C@H](N)C(=O)O)cc1

B1: Pegylated Compound 1 (ligand)
chain: MHPIPDSSPLLQFGGQVRQRYLYTDDAQQTEAHLEIREDGTVGGAADQSPESLLQLKALKPGVIQILGVKTSRFLCQRPDGALYGSLHFDPEACSFRELLLEDGYNVY[Phe(4-Ac)](PEG 30 kDa)SEAHGLPLHLPGNKSPHRDPAPRGPARFLPLPGLPPAPPEPPGILAPQPPDVGSSDPLSMVGPSQGRSPSYAS
As for B1, the “pERK EC50” value in assay [1] came out at 6.7 nM. For the same molecule, the “EC50 in the pERK assay” value in assay [2] amounted to 14 nM. Besides, in assay [3], the “EC50 (geometric mean), 5 hour Elk1-luciferase assay” value was found to be 3.6 nM and the “pEC50, 5 hour Elk1-luciferase assay” value worked out at 8.44 log M.

B2: Pegylated Compound 2 (ligand)
chain: MHPIPDSSPLLQFGGQVRQRYLYTDDAQQTEAHLEIREDGTVGGAADQSPESLLQLKALKPGVIQILGVKTSRFLCQRPDGALYGSLHFDPEACSFRELLLEDGYNVY[Phe(4-Ac)](PEG about 30 kDa)SEAHGLPLHLGSGRGPARFLPLPGLPPAPPEPPGILAPQPPDVGSSDPLSMVEPSQGRSPSYAS
On to B2, for which the “Geometric Mean EC50, Elk1-luciferase assay” value in assay [4] was determined as 5.9 nM. Besides, the “EC50 in the pERK assay” value in assay [2] is 28 nM. Besides, in assay [3], the “EC50 (geometric mean), 5 hour Elk1-luciferase assay” value came out at 5.4 nM and the “pEC50, 5 hour Elk1-luciferase assay” value was 8.27 log M.

B3: Pegylated Compound 22 (ligand)
chain: MHPIPDSSPLLQFGGQVRQRYLYTDDAQQTEAHLEIREDGTVGGAADQSPESLLQLKALKPGVIQILGVKTSRFLCQRPDGALYGSLHFDPEACSFRELLLEDGYNVY[Phe(4-Ac)](PEG 30 kDa)SEAHGLPLHLSGGPAPRGPARFLPLPGLPPAPPEPPGILAPQPPDVGSSDPLSMVEPSQGRSPSYAS
In the case of B3, in assay [2], the “EC50 in the pERK assay” value was found to be 36 nM.

B4: Compound 32 (Non-Pegylated Control) (ligand)
chain: MHHHHHHPIPDSSPLLQFGGQVRQRYLYTDDAQQTEAHLEIREDGTVGGAADQSPESLLQLKALKPGVIQILGVKTSRFLCQRPDGALYGSLHFDPEACSFRELLLEDGYNVYQSEAHGLPLHLPGNKSPHRDPAPRGPARFLPLPGLPPALPEPPGILAPQPPDVGSSDPLSMVGPSQGRSPSYAS
On to B4, for which the “EC50 in the pERK assay” value in assay [2] was found to be 8 nM.

B5: Compound 181 [Fc(hIgG1f_1.1_186)-L7-FGF21 (Cmp. 2)] (Fc fusion)
chain: EPKSSDKTHTCPPCPAPEAEGAPSVFLFPPKPKDTLMISRTPEVTCVVVDVSHEDPEVKFNWYVDGVEVHNAKTKPREEQYNSTYRVVSVLTVLHQDWLNGKEYKCKVSNKALPSSIEKTISKAKGQPREPQVYTLPPSREEMTKNQVSLTCLVKGFYPSDIAVEWESNGQPENNYKTTPPVLDSDGSFFLYSKLTVDKSRWQQGNVFSCSVMHEALHNHYTQKSLSLSPGKGGGGGSGGGSGGGGSHPIPDSSPLLQFGGQVRQRYLYTDDAQQTEAHLEIREDGTVGGAADQSPESLLQLKALKPGVIQILGVKTSRFLCQRPDGALYGSLHFDPEACSFRELLLEDGYNVYQSEAHGLPLHLGSGRGPARFLPLPGLPPAPPEPPGILAPQPPDVGSSDPLSMVEPSQGRSPSYAS
B5: the “Geometric Mean EC50, Elk1-luciferase assay” value in assay [4] worked out at 0.8 nM.

These data come from patent US12247058 (Bristol-Myers Squibb, dated 2025).
